# Test results as given in paper PMC3521685.
# Target: Myc-Sharp-1-bHLH (UniProt Q99PV5)
# Chain of UniProt Q99PV5 (Q99PV5 44-99): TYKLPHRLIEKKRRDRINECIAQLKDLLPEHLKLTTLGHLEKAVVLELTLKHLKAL
substance,measurement,value
FLAG-G9a (full-length G9a) (from UniProt Q9Z148 1-1263) (enzyme),inhibition of MyoD activity (pMyog-Luc reporter) by Sharp-1-bHLH,50%
